Reference: the RNAGym collection of RNA variant scans (doi:10.1021/acssynbio.7b00057)

B1: Pistol ribozyme (parent)
chain: GGGUCGUUGUUCCAUAAUCGCGUGGAUAUGGCACGCAAGUUUCUACCGGGCACCGUAAAUGUCCGACUGGAGCCGUUCGGGCGGCUAUAAACAGACCUCAGGCCCGAAGCGUGGCGGCACCUGCCGCCGGUGGUAAAAAAGAUCGGAAGAGCACACGUCU

Variants of: B1
Experiment: aptazyme ON/OFF ratio, guanine; higher = stronger switching; co-transcriptional cleavage with and without guanine

Variant | aptazyme ON/OFF ratio
U8C G9U U11G C12G | 1.2
U8C G9U U11G C12U | 1.59
U8C G9U U11G C12A | 1.08
U8C G9U U10A U11G C12U C13U | 1.2
U8C G9U U10A U11G C12U C13G | 1.14
U8C G9U U10A U11G C12U C13A | 1.12
U8C G9U U10G U11G C13G | 1.13
U8C G9U U10G U11G C13U | 1.27
U8C G9U U10G U11G C13A | 1.14
U8C G9U U10G C12U | 1.35
U8C G9U U10G C12A | 1.66
U8C G9U U10G C12G | 1.6
U8C U10A U11G C13U | 1.23
U8C U10A U11G C13G | 1.29
U8C U10A U11G C13A | 1.3
U8C G9U U10C U11A C12A C13U | 1.11
U8C G9U U10C U11A C12A C13A | 1.09
U8C G9U U10C U11A C12A C13G | 1.08
U8C U10A U11G C12U | 1.33
U8C U10A U11G C12A | 1.06
U8C U10A U11G C12G | 1.31
U8C U10C C12G C13A | 1.37
U8C U10C C12G C13G | 1.29
U8C U10C C12G C13U | 1.33

Variant | aptazyme ON/OFF ratio
U8C G9U U10A U11A C12G C13U | 1.21
U8C G9U U10A U11A C12G C13G | 1.16
U8C G9U U10A U11A C12G C13A | 1.2
U8C G9U U10A U11G C12U | 1.43
U8C G9U U10A U11G C12G | 1.23
U8C G9U U10A U11G C12A | 1.07
U8C G9U U10G U11G C12U | 1.12
U8C G9U U10G U11G C12G | 1.18
U8C G9U U10G U11G C12A | 1.22
U8C G9U U10G C13G | 1.21
U8C G9U U10G C13U | 1.67
U8C G9U U10G C13A | 1.42
U8C G9U U10A U11A C12U C13G | 1.2
U8C G9U U10A U11A C12U C13U | 1.5
U8C G9U U10A U11A C12U C13A | 1.14
U8C U10A C12U C13G | 1.11
U8C U10A C12U C13U | 1.32
U8C U10A C12U C13A | 1.14
U8C U10C C12U C13G | 1.26
U8C U10C C12U C13U | 1.41
U8C U10C C12U C13A | 1.21
U8C U10C C13A | 1.07
U8C U10C C13U | 1.51
U8C U10C C13G | 1.26

Variant | aptazyme ON/OFF ratio
U8C G9U U11A C12G C13G | 1.12
U8C G9U U11A C12G C13A | 1.13
U8C G9U U11A C12G C13U | 1.22
U8C G9U U10G U11G C12G C13A | 1.14
U8C G9U U10G U11G C12G C13U | 1.26
U8C G9U U10G U11G C12G C13G | 1.1
U8C G9U U11C C12G C13A | 1.13
U8C G9U U11C C12G C13U | 1.15
U8C G9U U11C C12G C13G | 1.03
U8C G9U U10G U11A C12U | 1.04
U8C G9U U10G U11A C12G | 1.22
U8C G9U U10G U11A C12A | 1.56
U8C G9U U10A U11G C12A C13U | 1.26
U8C G9U U10A U11G C12A C13G | 1.13
U8C G9U U10A U11G C12A C13A | 1.14
U8C U10A U11C C12U | 1.02
U8C U10A U11C C12G | 1.17
U8C U10A U11C C12A | 1.08
U8C G9U U10A U11C C12U C13A | 1.19
U8C G9U U10A U11C C12U C13U | 1.23
U8C G9U U10A U11C C12U C13G | 1.09
U8C G9U U11G C13G | 1.02
U8C G9U U11G C13U | 1.23
U8C G9U U11G C13A | 1.24

Variant | aptazyme ON/OFF ratio
U8C U10C C12A C13G | 1.17
U8C U10C C12A C13A | 1.33
U8C U10C C12A C13U | 1.42
U8C U10C U11A | 1.63
U8C G9U U10C U11G C12U C13A | 1.13
U8C G9U U10C U11G C12U C13U | 1.25
U8C G9U U10C U11G C12U C13G | 1.12
U8C U10A U11A C12G C13U | 1.28
U8C U10A U11A C12G C13A | 1.15
U8C U10A U11A C12G C13G | 1.35
U8C G9U U10G U11C C12G | 1.19
U8C G9U U10G U11C C12A | 1.62
U8C G9U U10G U11C C12U | 1.04
U8C G9U U11A C12G | 1.36
U8C G9U U11A C12A | 1.37
U8C G9U U11A C12U | 1.39
U8C G9U C12U C13G | 1.04
U8C G9U C12U C13U | 0.959
U8C G9U C12U C13A | 1.25
U8C G9U U10A C13U | 1.37
U8C G9U U10A C13G | 1.06
U8C G9U U10A C13A | 1.29
U8C G9U U10A C12U C13U | 1.09
U8C G9U U10A C12U C13A | 1.18

Variant | aptazyme ON/OFF ratio
U8C G9U U10A C12U C13G | 1.2
U8C G9U U10C U11G C12A | 1.07
U8C G9U U10C U11G C12G | 1.12
U8C G9U U10C U11G C12U | 1.22
U8C U10A U11A C13U | 1.21
U8C U10A U11A C13A | 1.17
U8C U10A U11A C13G | 1.22
U8C G9U U10C U11A C12U C13A | 1.13
U8C G9U U10C U11A C12U C13U | 1.2
U8C G9U U10C U11A C12U C13G | 1.09
U8C G9U U10G U11A C12U C13A | 1.24
U8C G9U U10G U11A C12U C13G | 1.16
U8C G9U U10G U11A C12U C13U | 1.31
U8C G9U U10G U11C C13U | 1.11
U8C G9U U10G U11C C13A | 1.24
U8C G9U U10G U11C C13G | 1.04
U8C U10A U11A C12U | 1.22
U8C U10A U11A C12G | 1.28
U8C U10A U11A C12A | 1.17
U8C G9U U10C U11A C13G | 1.05
U8C G9U U10C U11A C13A | 1.13
U8C G9U U10C U11A C13U | 1.16
U8C U10A C12U | 1.1
U8C U10A C12A | 1.29

Variant | aptazyme ON/OFF ratio
U8C U10A C12G | 1.21
U8C G9U U10G U11C C12U C13G | 1.11
U8C G9U U10G U11C C12U C13A | 1.19
U8C G9U U10G U11C C12U C13U | 1.19
U8C G9U U11C C12U C13A | 1.04
U8C G9U U11C C12U C13G | 1.04
U8C G9U U11C C12U C13U | 1.1
U8C G9U C13U | 1.27
U8C G9U C13G | 1.03
U8C G9U C13A | 1.08
U8C G9U C12G C13A | 1.21
U8C G9U C12G C13G | 1.17
U8C G9U C12G C13U | 1.25
U8C G9U U10A C12A C13G | 1.19
U8C G9U U10A C12A C13U | 1.13
U8C G9U U10A C12A C13A | 1.17
U8C U10A U11C C13G | 1.04
U8C U10A U11C C13U | 1.03
U8C U10A U11C C13A | 1.02
U8C G9U U10A U11A C12A C13A | 1.28
U8C G9U U10A U11A C12A C13G | 1.1
U8C G9U U10A U11A C12A C13U | 1.33
U8C G9U U10C U11A C12G | 1.17
U8C G9U U10C U11A C12U | 1.17

Variant | aptazyme ON/OFF ratio
U8C G9U U10C U11A C12A | 1.15
U8C G9U U10C U11A C12G C13U | 1.08
U8C G9U U10C U11A C12G C13A | 1.08
U8C G9U U10C U11A C12G C13G | 1.11
U8C G9U U11A C12A C13A | 1.26
U8C G9U U11A C12A C13U | 1.34
U8C G9U U11A C12A C13G | 1.16
U8C G9U U10A U11G C13G | 1.11
U8C G9U U10A U11G C13U | 1.32
U8C G9U U10A U11G C13A | 1.2
U8C G9U U10C C12G | 1.26
U8C G9U U10C C12U | 1.05
U8C G9U U10C C12A | 1.19
U8C G9U U10C U11G C12G C13A | 1.11
U8C G9U U10C U11G C12G C13U | 1.07
U8C G9U U10C U11G C12G C13G | 1.15
U8C U10C U11A C12A | 1.34
U8C G9U U10C U11C C12U | 1.06
U8C G9U U10C U11C C12G | 1.09
U8C G9U U10C U11C C12A | 1.03
U8C U10A U11C C12G C13A | 1.16
U8C U10A U11C C12G C13U | 1.2
U8C U10A U11C C12G C13G | 1.38
